Data on four molecules can be found in paper PMC6900781, “Reconstituting Drosophila Centromere Identity in Human Cells” (Cell Reports, 2019).

As usually defined, the stoichiometry N is the number of molecules, sites or subunits per partner or assembly.

First the molecules themselves.
B2: recombinant His-dCENP-C(1264-1411) (domain or fragment, Drosophila melanogaster, UniProt Q9VHP9 1264-1411, looked up)
chain: GPVVFSTPLRDEQEEASTKLMQWLRGVGDAPPSASMSDENASVSSANELIFCQVDGIDYAFYNTKEKAMLGYMRFKPYQKRSMKQAKVHPLKLLVQFGEFNVETLAVGEEKEVHSVLRVGDMIEIDRGTRYSIQNAIDKVSVLMCIRS
notes: dimer by SEC-MALS; source: recombinant, T7-promoter vector; not shown: His, N-terminal, kept

One data set addresses T1, dCENP-A^C-GFP-LacI (Drosophila melanogaster, UniProt Q9V6Q2 1-202; P02299 116-136).
T1 construct: Drosophila CENP-A, N, L1 and α2 domains, residues 1-202; Drosophila histone H3, C region, residues 116-136; also called dCENP-A^C chimera; source: U2OS-LacO cells, transiently transfected, in cells; not shown: GFP-LacI (LacI lacking 11 C-terminal amino acids), C-terminal, kept
The data set is described as follows: LacI/LacO tethering and recruitment assay (immunofluorescence); bait fused to GFP-LacI tethered to chromosomal LacO arrays in human U2OS cells; HA- or V5-tagged prey transiently co-expressed; IF 48 h after transfection, prey intensity at the LacO spot or % of cells; no third Drosophila centromere protein co-expressed. As to conditions: partners not purified.

Data set [1] concerns the molecule itself. The data set is described as follows: SEC-MALS; recombinant proteins; Superdex 200 10/300 Increase GL, 50 mM HEPES pH 8.0, 150 or 300 mM NaCl, 1 mM TCEP, 22°C, 100 μl of 1-5 mg/ml. (In general: SEC sorts molecules by how far they enter the pores of the column.)
The target in another data set is T2, recombinant CAL1(1-160) (Drosophila melanogaster, UniProt Q9VEN2 1-160).
T2 construct: CAL1, residues 1-160; the vector name points to a 3C protease site; monomer by SEC-MALS; also called monomeric N-terminal fragment of CAL1; source: recombinant, T7-promoter vector pEC-K-3C-His-GST
T2 sequence (looked up): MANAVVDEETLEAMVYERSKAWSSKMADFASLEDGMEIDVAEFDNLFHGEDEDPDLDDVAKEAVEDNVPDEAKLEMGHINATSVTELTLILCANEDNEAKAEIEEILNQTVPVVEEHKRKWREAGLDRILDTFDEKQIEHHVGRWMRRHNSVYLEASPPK
The description is as above. As to conditions: both partners purified.

The target in a further data set is T3, recombinant dH4 (Drosophila melanogaster, UniProt P84040 1-103).
T3 construct: Drosophila histone H4 (dH4); source: recombinant, T7-promoter vector pET3a (from Karolin Luger)
Described as above. Conditions: both partners purified.

The target of data set [2] is B2. The description is as above. As to conditions: both partners purified.
Data set [3] concerns the target B2. Description: mass spectrometry (iBAQ peptide intensities) of the complex; ratio of iBAQ intensities of the two fragments within the recombinant His-dCENP-C(1264-1411)/CAL1(841-979) complex. Conditions: both partners purified.

T1 sequence (Q9V6Q2 other isoform, or with tags, fused parts or gaps): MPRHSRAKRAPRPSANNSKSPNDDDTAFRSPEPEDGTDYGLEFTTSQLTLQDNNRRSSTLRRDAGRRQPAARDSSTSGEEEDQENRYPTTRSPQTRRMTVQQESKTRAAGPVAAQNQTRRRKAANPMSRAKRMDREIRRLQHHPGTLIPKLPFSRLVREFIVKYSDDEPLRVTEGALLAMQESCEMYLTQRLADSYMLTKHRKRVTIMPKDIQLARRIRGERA

B1: CAL1-V5 (natural protein, Drosophila melanogaster, UniProt Q9VEN2 1-979, looked up)
chain: MANAVVDEETLEAMVYERSKAWSSKMADFASLEDGMEIDVAEFDNLFHGEDEDPDLDDVAKEAVEDNVPDEAKLEMGHINATSVTELTLILCANEDNEAKAEIEEILNQTVPVVEEHKRKWREAGLDRILDTFDEKQIEHHVGRWMRRHNSVYLEASPPKYLPPHHNSISDESDESMHSIDTARYIQQSRRRNAHMTNKNMTTIKMYRKHSHKRDELRAKYAYGDEQEHRHHMQAVLLRRRERERQLAYLASTPMQCVYSSGHHMRRKNLRKRRINSWMFDSASSSEEDTSFGGCDCHSCRRHYALSRSVYQSCPYGRGQREYHHRQMASRTMHTMRRQHTFDMEMDLRPRLPENECSCCNSDRLCSNVIHIANSSTEEWVVENRSNHLTQETQEKTRKQKHQPMDARKVSHQPVCSKGHEQKPLSSKATSVSKLVLSKEKYMQMFDSESSDEDNALAKKGLLCCSDKKKGMTFPTPNAAGKITHPTSSAKKAIRKEARPNGLAQIQEEGPTATNSPIESTYLPVAHMKSVSIDGSSGTSATFESPAKKAPKRGIRETSPLNGNELQQLISTIPIADEKASSLMEKVDNCIGRESFDDRNKDFMHMENSSTKTAVEKSTKQKRVSGKKSEIPKSIITNNEILEKNSTETLSEKQVAAKAKKQSVRKTGATGKPSTSRLKKSEKTKTTSSVTSTSKLEQVREEESDVSSEVLAKPKPQCSTTASILKQGGDGASNSEDDLQIALAMSKATYKEEQQKRKKTKREPSNKQPQSPAEKSMTVFNNQSVACNSTALANDTACYRVLPKRRGVKRAAAVSTTEEKTATNSSSSPTSSLEEMGSPTGGDPDCTVVTSTTGCEPPASERQEIPATIKITKRGILLHSPSAPEGASFTLTEQGLGKIIGERWARKYLKYHIGSRSFDSRHSVYYQPTPQLAAALSAPQDAQNIGNISGSSASDDDIFEQINRYGTVYSILENNSGDK
notes: CAL1, Drosophila dCENP-A-specific chaperone; also called V5-tagged CAL1; source: U2OS-LacO cells, transiently transfected, in cells; not shown: V5, C-terminal, kept
In the case of B1, the “CAL1 recruitment relative to wild-type dCENP-A” value with dCENP-A^C-GFP-LacI was 60%.

Take B2: the “stoichiometry N” value in data set [1] was determined as 2.

B3: recombinant dCENP-A(101-225) (domain or fragment, Drosophila melanogaster, UniProt Q9V6Q2 101-225, looked up)
chain: QQESKTRAAGPVAAQNQTRRRKAANPMSRAKRMDREIRRLQHHPGTLIPKLPFSRLVREFIVKYSDDEPLRVTEGALLAMQESCEMYLTQRLADSYMLTKHRNRVTLEVRDMALMAYICDRGRQF
notes: also called dCENP-A lacking the N-terminal tail; source: recombinant, T7-promoter vector pET3a
As to B3, the binding result with recombinant CAL1(1-160) and with recombinant dH4 was “binds” each time.

B4: recombinant CAL1(841-979) (domain or fragment, Drosophila melanogaster, UniProt Q9VEN2 841-979, looked up)
chain: GGDPDCTVVTSTTGCEPPASERQEIPATIKITKRGILLHSPSAPEGASFTLTEQGLGKIIGERWARKYLKYHIGSRSFDSRHSVYYQPTPQLAAALSAPQDAQNIGNISGSSASDDDIFEQINRYGTVYSILENNSGDK
notes: also called CAL1 monomer fragment; source: recombinant, vector pEC-K-3C-His-GST
In the case of B4, the “stoichiometry N” value in data set [2] is 0.5 CAL1 chains per dCENP-C chain; in data set [3], ~0.5 CAL1 chains per dCENP-C chain.
